Experimental data taken from US12221480.

Columns and labels:
[1] = biological target: anti-CD20 (Rituxan) chimeric antigen receptor ACT2; experiment: flow cytometry, panel Donor 4 (δ3-23): cells transduced with the anti-CD20 CAR ACT2, stained with rat anti-Rituximab-FITC; no % sign is printed
[2] = biological target: anti-CD20 (Rituxan) chimeric antigen receptor ACT2; experiment: flow cytometry, panel Donor 4 (δ3-08): cells transduced with the anti-CD20 CAR ACT2, stained with rat anti-Rituximab-FITC; no % sign is printed
[3] = biological target: anti-CD20 (Rituxan) chimeric antigen receptor ACT2; experiment: flow cytometry, panel Donor 3 (δ3-23): cells transduced with the anti-CD20 CAR ACT2, stained with rat anti-Rituximab-FITC; no % sign is printed
[4] = biological target: recombinant human soluble γ2 δ3TCR-FC (wild type) (human) (UniProt B7Z8K6); experiment: Octet, γ2δ3TCR-hFc captured on anti-human Fc biosensor; row antibody δ3-23 taken as first (saturating), column antibody as second; 5 µg/mL each
[5] = biological target: recombinant human soluble γ2 δ3TCR-FC (wild type) (human) (UniProt B7Z8K6); experiment: Octet, γ2δ3TCR-hFc captured on anti-human Fc biosensor; row antibody δ3-58 taken as first (saturating), column antibody as second; 5 µg/mL each
[6] = biological target: γ2δ3 TCR-hFc mutant S5 (D70N, E67Q in the Vδ3 chain) (human) (UniProt B7Z8K6); experiment: Luminex beads; TCR-hFc captured by goat anti-human Fc; antibody titrated
[7] = biological target: γ2δ3 TCR-hFc mutant S6 (R75Q, R95Q in the Vδ3 chain) (human) (UniProt B7Z8K6); experiment: as above
[8] = biological target: γ2δ3 TCR-hFc mutant S4 (E18Q in the Vδ3 chain) (human) (UniProt B7Z8K6); experiment: as above
[9] = biological target: recombinant human soluble γ2 δ3TCR-FC (wild type) (human) (UniProt B7Z8K6); experiment: as above
[10] = biological target: γ2δ3 TCR-hFc mutant S10 (K3A, K79L, H88T in the Vδ3 chain) (human) (UniProt B7Z8K6); experiment: as above
[11] = biological target: γ2δ3 TCR-hFc mutant S3 (K79L, H88F in the Vδ3 chain) (human) (UniProt B7Z8K6); experiment: as above
[12] = biological target: γ2δ3 TCR-hFc mutant S2 (D26N, K85L in the Vδ3 chain) (human) (UniProt B7Z8K6); experiment: as above
[13] = biological target: γ2δ3 TCR-hFc mutant S7 (D57N, R65Q in the Vδ3 chain) (human) (UniProt B7Z8K6); experiment: as above
[14] = biological target: γ2δ3 TCR-hFc mutant S1 (D10N in the Vδ3 chain) (human) (UniProt B7Z8K6); experiment: as above
[15] = biological target: γ2δ3 TCR-hFc mutant S8 (K79L, E18Q, H88F in the Vδ3 chain) (human) (UniProt B7Z8K6); experiment: as above
[16] = biological target: γ2δ3 TCR-hFc mutant S11 (K79L, L82K, H88F in the Vδ3 chain) (human) (UniProt B7Z8K6); experiment: as above
[17] = biological target: γ2δ3 TCR-hFc mutant S9 (E67Q, D70N, R75Q, R95Q, E97Q in the Vδ3 chain) (human) (UniProt B7Z8K6); experiment: as above
[18] = biological target: recombinant human soluble γ2 δ3TCR-FC (wild type) (human) (UniProt B7Z8K6); experiment: Octet, γ2δ3TCR-hFc captured on anti-human Fc biosensor; row antibody δ3-31 taken as first (saturating), column antibody as second; 5 µg/mL each
[19] = biological target: recombinant human soluble γ2 δ3TCR-FC (wild type) (human) (UniProt B7Z8K6); experiment: Octet, γ2δ3TCR-hFc captured on anti-human Fc biosensor; row antibody δ3-08 taken as first (saturating), column antibody as second; 5 µg/mL each; self pair
[20] = biological target: γ2δ3 TCR-hFc mutant S10 (K3A, K79L, H88T in the Vδ3 chain) (human) (UniProt B7Z8K6); experiment: Luminex beads; TCR-hFc captured by goat anti-human Fc; antibody titrated; extrapolated value, no saturation achieved
[21] = biological target: γ2δ3 TCR-hFc mutant S3 (K79L, H88F in the Vδ3 chain) (human) (UniProt B7Z8K6); experiment: as above
[22] = biological target: γ2δ3 TCR-hFc mutant S8 (K79L, E18Q, H88F in the Vδ3 chain) (human) (UniProt B7Z8K6); experiment: as above
[23] = biological target: γ2δ3 TCR-hFc mutant S11 (K79L, L82K, H88F in the Vδ3 chain) (human) (UniProt B7Z8K6); experiment: as above
[24] = biological target: recombinant human soluble γ2 δ3TCR-FC (wild type) (human) (UniProt B7Z8K6); experiment: Octet, γ2δ3TCR-hFc captured on anti-human Fc biosensor; row antibody δ3-42 taken as first (saturating), column antibody as second; 5 µg/mL each
[25] = biological target: recombinant human soluble γ2 δ3TCR-FC (wild type) (human) (UniProt B7Z8K6); experiment: Octet, γ2δ3TCR-hFc captured on anti-human Fc biosensor; row antibody δ3-58 taken as first (saturating), column antibody as second; 5 µg/mL each; self pair
[26] = biological target: recombinant human soluble γ2 δ3TCR-FC (wild type) (human) (UniProt B7Z8K6); experiment: Octet, γ2δ3TCR-hFc captured on anti-human Fc biosensor; row antibody δ3-08 taken as first (saturating), column antibody as second; 5 µg/mL each
[27] = biological target: Vδ3 γδ TCR on the surface of human Vδ3 γδ T cells (PBMC-derived, expanded cultures) (human) (UniProt A0JD37); experiment: flow cytometry, lower right panel (δ3-23 Expansion): untransduced Donor 4 cells after αβ T cell depletion, δ3-23 MAb staining (x axis) against anti-TCRαβ (y axis); the gated population lies between about 10^4 and 10^5 on the δ3-23 axis; no % sign is printed
Chain of UniProt A0JD37 (A0JD37 19-113, stated change not applied): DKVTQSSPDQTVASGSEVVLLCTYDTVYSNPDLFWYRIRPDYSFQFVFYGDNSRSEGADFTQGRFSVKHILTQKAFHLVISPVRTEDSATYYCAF

[28] = biological target: Vδ3 γδ TCR on the surface of human Vδ3 γδ T cells (PBMC-derived, expanded cultures) (human) (UniProt A0JD37); experiment: flow cytometry on expanded, αβ T cell depleted γδ T cells of Donor 4
[29] = biological target: Vδ3 γδ TCR on the surface of human Vδ3 γδ T cells (PBMC-derived, expanded cultures) (human) (UniProt A0JD37); experiment: flow cytometry, upper right panel (δ3-08 Expansion): untransduced Donor 4 cells after αβ T cell depletion, δ3-23 MAb staining (x axis) against anti-TCRαβ (y axis); the gated population lies between about 10^4 and 10^5 on the δ3-23 axis; no % sign is printed
[30] = biological target: Vδ3 γδ TCR on the surface of human Vδ3 γδ T cells (PBMC-derived, expanded cultures) (human) (UniProt A0JD37); experiment: cell-based or functional assay
[31] = biological target: recombinant human soluble γ2 δ3TCR-FC (wild type) (human) (UniProt B7Z8K6); experiment: Octet, γ2δ3TCR-hFc captured on anti-human Fc biosensor; row antibody δ3-23 taken as first (saturating), column antibody as second; 5 µg/mL each; self pair
[32] = biological target: γ2δ3 TCR-hFc mutant S9 (E67Q, D70N, R75Q, R95Q, E97Q in the Vδ3 chain) (human) (UniProt B7Z8K6); experiment: Luminex beads; TCR-hFc captured by goat anti-human Fc; antibody titrated; extrapolated value, no saturation achieved
[33] = biological target: recombinant human soluble γ2 δ3TCR-FC (wild type) (human) (UniProt B7Z8K6); experiment: Octet, γ2δ3TCR-hFc captured on anti-human Fc biosensor; row antibody δ3-42 taken as first (saturating), column antibody as second; 5 µg/mL each; self pair

Molecule	paired-competition value (Octet signal of the second antibody per paragraph 256) [4]	paired-competition value (Octet signal of the second antibody per paragraph 256) [5]	EC50 [6] [nM]	EC50 [7] [nM]	EC50 [8] [nM]	EC50 [9] [nM]	EC50 [12] [nM]	EC50 [13] [nM]	EC50 [14] [nM]	EC50 [17] [nM]	paired-competition value (Octet signal of the second antibody per paragraph 256) [18]	EC50 [20] [nM]	EC50 [21] [nM]	EC50 [22] [nM]	EC50 [23] [nM]	paired-competition value (Octet signal of the second antibody per paragraph 256) [24]	paired-competition value (Octet signal of the second antibody per paragraph 256) [26]	further results
aRitxmab-FITC (antibody)	–	–	–	–	–	–	–	–	–	–	–	–	–	–	–	–	–	percent of cells in the CAR+ gate [1]: 73.5%; percent of cells in the CAR+ gate [2]: 70.7%; percent of cells in the CAR+ gate [3]: 83.1%
δ3-08 (antibody, V domains shown) VH: EEKLEESGGGLVQPGGSMKLSCVASGFIFSIYWMNWVRQSPEKGLEWVGQIRLKSDNYATHYAESVKGRFTISRDDSKSSVYLQMNNLRAEDTGIYYCMYYGSSYERFAYWGQGTLVTVSA VL: DIQMIQSPASLSVSVGETVTITCRASENIYSNLAWYQQKQGKSPQLLVYVATKLADGVPSRFSGSGSGTQYSLKINSLQSEDFGSYYCQHFWGTPPWTFGGGTKLEIK	0.04	0.04	0.05	0.06	0.06	0.06	0.07	0.07	0.08	0.07	0.24	–	–	–	–	–	–	EC50 [10]: 2.5 nM; EC50 [11]: 0.05 nM; EC50 [15]: 0.04 nM; EC50 [16]: 0.03 nM; paired-competition value (Octet signal of the second antibody per paragraph 256) [19]: 0.16
δ3-23 (antibody, V domains shown) VH: EVQLQQSGAELVKPGASVKLSCTASGFNIRDTYMHWVKQRPEQGLEWIGRIDPANGNTKYDPKFRGKATITADTSSNTAYLQLSSLTSEGTAVYYCSEGIYFDYWGQGTTLTVSS VL: DILLTQSPAILSVSPGERVSFSCRASQNIGTIIHWYQQRANGSPRLLIKYASESISGIPSRFSGSGSGTDFTLSINSVESEDIADYYCQQSNSWPYTFGGGTKLEIKR	–	0.07	0.04	0.04	0.06	0.04	0.04	0.04	0.04	0.05	0.48	117	137	95.8	112	0.12	0.29	percent of cells in the Vd3+ gate [27]: 95%; % of non-Vδ1/non-Vδ2 cells stained positive [28]: > 95%; percent of cells in the Vd3+ gate [29]: 95.5%; share of non-Vδ1/non-Vδ2 γδ T cells in the culture on Day 21, Donor 1 [30]: < 41%; paired-competition value (Octet signal of the second antibody per paragraph 256) [31]: 0.06

Now from value to molecule, other results behind:

paired-competition value (Octet signal of the second antibody per paragraph 256) [4]	paired-competition value (Octet signal of the second antibody per paragraph 256) [5]	EC50 [6] [nM]	EC50 [7] [nM]	EC50 [8] [nM]	EC50 [9] [nM]	EC50 [12] [nM]	EC50 [13] [nM]	EC50 [14] [nM]	EC50 [17] [nM]	paired-competition value (Octet signal of the second antibody per paragraph 256) [18]	EC50 [20] [nM]	EC50 [21] [nM]	EC50 [22] [nM]	EC50 [23] [nM]	paired-competition value (Octet signal of the second antibody per paragraph 256) [24]	paired-competition value (Octet signal of the second antibody per paragraph 256) [26]	Molecule	further results
0.03	–	0.02	0.02	0.02	0.03	0.03	0.04	0.02	0.05	0.37	336	508	3370	136	0.06	0.22	δ3-58 (antibody, V domains shown) VH: EVKLVESGGGLVQPGGSLKLSCAASGFTFSSYAMSWVRQTPEKRLEWVAYIRDGGGGTYYPDTVEGRFTISRDNAKNTLYLQMSSLKSEDTAMYYCARHPPMNDWFLYWGQGTLVTVSA VL: DIQMTQSPASLSVSVGETVTITCRASENIYSHLAWYQQKQGKSPQLLVYAATNLADGVPSRFSGSGSGTQYSLKINSLQSEDFGSYYCQHFWGTPYTFGGGTKLEIKR	paired-competition value (Octet signal of the second antibody per paragraph 256) [25]: 0.03
0.04	0.03	0.08	0.13	0.05	0.05	0.17	0.15	0.07	–	0.35	449	106	258	199	–	0.21	δ3-42 (antibody, V domains shown) VH: DVQLQESGPDLVKPSQSLSLTCTVTGYSITSGYNWHWIRQFPGNKLEWMGYIHYSGNTDYNPSLRSRISITRDTSKNQFFLHLNSVPTEDTATYYCARSGITTDWYFDVWGAGTTVTVSS VL: QIVLSQSPAILSASPGEKVTMTCRASSSVNYMHWYQQKPGSSPKPWIYATSNLASGVPARFSGSGSGTSYSLTISKVEAEDAATYYCQQWSSHQPTFGAGTKLELK	EC50 [32]: 49.3 nM; paired-competition value (Octet signal of the second antibody per paragraph 256) [33]: 0.04
